Measurements as given in article PMC12452593.

Target: EV-D68 US/MO/14-18947 viral particles (Enterovirus D68)

secreted MFSD6-Fc microbody (from UniProt Q6ZSS7 153-280) (Fc fusion)
survival rate of neonatal ICR mice (n = 9 per group) given 1.0 × 10^7 TCID50 of EV-D68 US/MO/14-18947 pre-incubated with 15 ug secMFSD6 Mb (secCtl Mb group: 11.11%): 88.9%
